Data from paper PMC10498669.

Target: AAV8 VP3 of the VP3-only capsid (VLP-0) (adeno-associated virus serotype 8)
Assay: native MS; high-resolution ensemble native MS of purified capsids; 75 mM ammonium acetate pH 7.5; Orbitrap Q Exactive UHMR, xenon collision gas, positive ion mode; spectra compared with simulations of stochastic assembly

**Q.** With “AAV8 VP3 of the VP3-only capsid (VLP-0) (natural protein)” as the substance, how does the stoichiometry N read?
**A.** 60
